Experimental data as given in patent US20060204492A1 (published 2006).
Residue numbers refer to the chain shown, from its start. In names and notes the source's numbering stands. Where two headings read alike, the source gives them in different places.

B1: LM609 grafted antibody Fab (Fab, V domains shown)
VH: QVQLVESGGGVVQPGRSLRLSCAASGFTFSSYDMSWVRQAPGKGLEWVAKVSSGGGSTYYLDTVQGRFTISRDNSKNTLYLQMNSLRAEDTAVYYCARHNYGSFAYWGQGTTVTVSS
VL: EIVLTQSPATLSLSPGERATLSCQASQSISNHLHWYQQRPGQAPRLLIRYRSQSISGIPARFSGSGSGTDFTLTISSLEPEDFAVYYCQQSGSWPHTFGGGTKVEIK
notes: Fab expressed from M13 phage vector, human kappa chain, peptide tag on the carboxyl-terminus of the heavy chain; also called LM609 grafted Fab; parent LM609 grafted antibody
B2: LM609 grafted antibody variant L96 (Fab, V domains shown)
VH: B1 VH
VL: B1 VL with H96L
notes: Fab
B3: LM609 grafted antibody combinatorial clone 7 (Fab, V domains shown)
VH: B1 VH with L61P, Y101H, Y106S
VL: B1 VL with H32F
notes: Fab
B4: LM609 grafted antibody combinatorial clone C119 (Fab, V domains shown)
VH: B1 VH with L61P, Y106S
VL: B1 VL with G92N
notes: Fab
B5: LM609 grafted antibody variant T27 (Fab, V domains shown)
VH: B1 VH with F27T
VL: B1 VL
notes: Fab
B6: LM609 grafted antibody variant D101 (Fab, V domains shown)
VH: B1 VH with A105D
VL: B1 VL
notes: Fab
B7: LM609 grafted antibody variant E102 (Fab, V domains shown)
VH: B1 VH with Y106E
VL: B1 VL
notes: Fab
B8: LM609 grafted antibody combinatorial clone 2G4 (Fab, V domains shown)
VH: B1 VH with Y106S
VL: B1 VL with H96L
notes: Fab
B9: LM609 grafted antibody combinatorial clone 6D1 (Fab, V domains shown)
VH: B1 VH with L61P, A105Y, Y106S
VL: B1 VL with H96L
notes: Fab
B10: LM609 grafted antibody variant T102 (Fab, V domains shown)
VH: B1 VH with Y106T
VL: B1 VL
notes: Fab
B11: LM609 grafted antibody variant L30 (Fab, V domains shown)
VH: B1 VH with S30L
VL: B1 VL
notes: Fab
B12: LM609 grafted antibody combinatorial clone C29 (Fab, V domains shown)
VH: B1 VH with L61P, Y101H, A105Y, Y106S
VL: B1 VL with H96L
notes: Fab
B13: LM609 grafted antibody variant E64 (Fab, V domains shown)
VH: B1 VH with Q65E
VL: B1 VL
notes: Fab
B14: LM609 grafted antibody variant M102 (Fab, V domains shown)
VH: B1 VH with Y106M
VL: B1 VL
notes: Fab
B15: LM609 grafted antibody variant T92 (Fab, V domains shown)
VH: B1 VH
VL: B1 VL with G92T
notes: Fab
B16: LM609 grafted antibody combinatorial clone C59 (Fab, V domains shown)
VH: B1 VH with L61P, Y106D
VL: B1 VL with H32F
notes: Fab
B17: LM609 grafted antibody combinatorial clone V357D (Fab, V domains shown)
VH: B1 VH with Y106D
VL: B1 VL with H32F
notes: Fab; V357D is a clone name, not a substitution
B18: LM609 grafted antibody variant S51 (Fab, V domains shown)
VH: B1 VH
VL: B1 VL with R51S
notes: Fab
B19: LM609 grafted antibody combinatorial clone 8F9 (Fab, V domains shown)
VH: B1 VH with L61P, Y101H, Y106S
VL: B1 VL with H96L
notes: Fab
B20: LM609 grafted antibody variant A102 (Fab, V domains shown)
VH: B1 VH with Y106A
VL: B1 VL
notes: Fab
B21: LM609 grafted antibody combinatorial clone 6G1 (Fab, V domains shown)
VH: B1 VH with L61P, Y106S
VL: B1 VL with H96L
notes: Fab
B22: LM609 grafted antibody combinatorial clone 17 (Fab, V domains shown)
VH: B1 VH with Y106S
VL: B1 VL with H32F
notes: Fab
B23: LM609 grafted antibody combinatorial clone 6H6 (Fab, V domains shown)
VH: B1 VH with Y101H, Y106S
VL: B1 VL with H96L
notes: Fab
B24: LM609 grafted antibody variant W29 (Fab, V domains shown)
VH: B1 VH with F29W
VL: B1 VL
notes: Fab
B25: LM609 grafted antibody combinatorial clone C37 (Fab, V domains shown)
VH: B1 VH with A105Y, Y106E
VL: B1 VL with H96L
notes: Fab
B26: LM609 grafted antibody combinatorial clone C176 (Fab, V domains shown)
VH: B1 VH with L61P, Y106T
VL: B1 VL with H32F
notes: Fab
B27: LM609 grafted antibody variant Q96 (Fab, V domains shown)
VH: B1 VH
VL: B1 VL with H96Q
notes: Fab
B28: LM609 grafted antibody variant P60 (Fab, V domains shown)
VH: B1 VH with L61P
VL: B1 VL
notes: Fab
B29: LM609 grafted antibody variant K52 (Fab, V domains shown)
VH: B1 VH with S52K
VL: B1 VL
notes: Fab
B30: LM609 grafted antibody variant N92 (Fab, V domains shown)
VH: B1 VH
VL: B1 VL with G92N
notes: Fab; also called LM609 grafted antibody having Asn at position 92 of light chain CDR3
B31: LM609 grafted antibody combinatorial clone 56 (Fab, V domains shown)
VH: B1 VH with L61P, Y106S
VL: B1 VL with H32F
notes: Fab
B32: LM609 grafted antibody variant D102 (Fab, V domains shown)
VH: B1 VH with Y106D
VL: B1 VL
notes: Fab

Key:
[1] = biological target: T1, integrin αvβ3, purified from human placenta (human, UniProt P06756 31-1048; P05106 27-788); assay: SPR (BIAcore), purified Fab over immobilized αvβ3
T1 construct: mature; Native heterodimer, immobilized on ELISA plates or on the BIAcore chip; biotinylated in capture lift and capture ELISA screens; also called αvβ3 receptor; vitronectin receptor
Procedure: (§1) The affinities of select variants were further characterized by utilizing surface plasmon resonance (BIAcore) to measure the association and dissociation rates of purified Fab with immobilized αᵥβ₃. […] To obtain association rate constants (kₒₙ), the binding rate at five different Fab concentrations, ranging from 5-40 μg/ml in 50 mM Tris-HCl, pH 7.4, 100 mM NaCl, 2 mM CaCl₂, and 1 mM MgCl₂, was determined at a flow rate of 10 μl/min. Dissociation rate constants (koff) were the average of five measurements obtained by analyzing the dissociation phase at an increased flow rate (40 μl/min). Sensorgrams were analyzed with the BIAevaluation 2.1 program (Pharmacia). Residual Fab was removed after each measurement with 10 mM HCl, 2 mM CaCl₂ and 1 mM MgCl₂.

[2] = biological target: T1, integrin αvβ3, purified from human …; assay: SPR (BIAcore), purified Fab over immobilized αvβ3; remark: listed apart in the source
Procedure: as §1

[3] = biological target: T1, integrin αvβ3, purified from human …; assay: ELISA titration of Fab on immobilized αvβ3
Procedure: Just prior to use, the plates were washed two times and were then incubated 1 h at 25° C. with various dilutions of Fab. […] All dilutions and washes were in 50 mM Tris-HCl, pH 7.4, 100 mM NaCl, 2 mM CaCl₂, and 1 mM MgCl₂.

[4] = biological target: T1, integrin αvβ3, purified from human …; assay: SPR (BIAcore), purified Fab over immobilized αvβ3; remark: listed apart in the source

T1 sequence (P06756 31-1048, form in doubt, chain 1 of 2): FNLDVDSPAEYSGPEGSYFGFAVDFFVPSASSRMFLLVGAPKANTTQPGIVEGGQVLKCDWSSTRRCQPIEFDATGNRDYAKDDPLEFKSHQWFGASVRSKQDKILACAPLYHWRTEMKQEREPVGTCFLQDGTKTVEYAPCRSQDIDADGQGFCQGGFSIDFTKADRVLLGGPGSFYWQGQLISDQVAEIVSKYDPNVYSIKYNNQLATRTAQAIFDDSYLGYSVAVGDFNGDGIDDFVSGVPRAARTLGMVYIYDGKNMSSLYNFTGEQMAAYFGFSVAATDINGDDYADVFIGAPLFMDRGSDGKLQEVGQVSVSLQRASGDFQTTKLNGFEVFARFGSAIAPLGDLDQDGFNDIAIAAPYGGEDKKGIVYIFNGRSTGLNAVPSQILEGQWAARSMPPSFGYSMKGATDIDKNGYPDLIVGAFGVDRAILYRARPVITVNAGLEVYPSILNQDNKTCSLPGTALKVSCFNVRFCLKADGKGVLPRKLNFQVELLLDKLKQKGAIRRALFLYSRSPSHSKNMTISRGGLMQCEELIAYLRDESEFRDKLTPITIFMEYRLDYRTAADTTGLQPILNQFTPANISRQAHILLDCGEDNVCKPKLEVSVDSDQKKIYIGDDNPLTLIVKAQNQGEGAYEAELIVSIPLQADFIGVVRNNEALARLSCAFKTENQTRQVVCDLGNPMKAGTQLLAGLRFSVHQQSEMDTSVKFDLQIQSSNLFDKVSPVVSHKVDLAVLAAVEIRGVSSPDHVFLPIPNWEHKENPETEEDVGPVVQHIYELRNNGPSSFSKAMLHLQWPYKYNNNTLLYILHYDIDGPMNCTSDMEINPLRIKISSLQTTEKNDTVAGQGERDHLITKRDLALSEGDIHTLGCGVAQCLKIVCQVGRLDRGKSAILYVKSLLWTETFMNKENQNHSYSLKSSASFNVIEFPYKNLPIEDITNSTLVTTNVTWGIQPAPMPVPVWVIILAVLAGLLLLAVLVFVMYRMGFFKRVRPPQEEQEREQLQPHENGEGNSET
T1 sequence (P05106 27-788, form in doubt, chain 2 of 2): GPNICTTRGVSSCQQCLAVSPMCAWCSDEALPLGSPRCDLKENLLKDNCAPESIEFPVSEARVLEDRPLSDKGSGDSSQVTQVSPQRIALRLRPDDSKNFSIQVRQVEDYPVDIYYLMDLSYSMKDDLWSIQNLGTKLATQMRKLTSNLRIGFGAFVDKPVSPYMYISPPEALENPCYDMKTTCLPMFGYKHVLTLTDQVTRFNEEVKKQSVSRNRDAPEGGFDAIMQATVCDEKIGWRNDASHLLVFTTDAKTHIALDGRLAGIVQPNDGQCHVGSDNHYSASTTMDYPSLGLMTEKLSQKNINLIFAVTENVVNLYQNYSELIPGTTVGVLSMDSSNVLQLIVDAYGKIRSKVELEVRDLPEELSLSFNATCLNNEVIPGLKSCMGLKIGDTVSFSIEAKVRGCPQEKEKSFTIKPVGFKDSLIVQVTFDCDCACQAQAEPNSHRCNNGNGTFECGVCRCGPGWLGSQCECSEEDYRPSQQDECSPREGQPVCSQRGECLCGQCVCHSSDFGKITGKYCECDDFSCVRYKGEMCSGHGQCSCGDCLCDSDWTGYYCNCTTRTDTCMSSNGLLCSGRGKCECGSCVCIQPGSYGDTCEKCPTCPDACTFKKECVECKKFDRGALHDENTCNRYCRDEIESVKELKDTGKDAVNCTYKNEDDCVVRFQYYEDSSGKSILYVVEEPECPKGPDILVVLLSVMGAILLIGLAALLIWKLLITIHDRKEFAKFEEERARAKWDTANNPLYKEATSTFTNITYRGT

| Binder | Kd [2] | koff [2] | kon [2] | fold enhanced binding over parent LM609 grafted antibody [3] | fold slower dissociation rate than parent [4] | also measured |
| --- | --- | --- | --- | --- | --- | --- |
| B1 | 27.6 nM | 0.00497 s⁻¹ | 180000 M⁻¹ s⁻¹ |  |  | Kd [1]: 27.6 nM; koff [1]: 0.00497 s⁻¹; kon [1]: 180000 M⁻¹ s⁻¹ |
| B2 |  |  |  | > 3 fold |  | Kd [1]: 9.2 nM; koff [1]: 0.00223 s⁻¹; kon [1]: 243000 M⁻¹ s⁻¹ |
| B3 | 1.2 nM | 0.000236 s⁻¹ | 204000 M⁻¹ s⁻¹ |  | > 10 fold |  |
| B4 | 1.5 nM | 0.000316 s⁻¹ | 215000 M⁻¹ s⁻¹ |  | > 10 fold | fold greater affinity than parent LM609 grafted antibody [4]: 18 fold |
| B5 |  |  |  | > 3 fold |  |  |
| B6 |  |  |  | > 3 fold |  |  |
| B7 |  |  |  | > 3 fold |  |  |
| B8 | 0.4 nM | 0.000229 s⁻¹ | 603000 M⁻¹ s⁻¹ |  | > 10 fold | fold enhanced affinity over parent LM609 grafted antibody [4]: > 50 fold |
| B9 | 0.4 nM | 0.000158 s⁻¹ | 410000 M⁻¹ s⁻¹ |  | > 10 fold |  |
| B10 |  |  |  | > 3 fold |  | Kd [1]: 5.8 nM; koff [1]: 0.00143 s⁻¹; kon [1]: 246000 M⁻¹ s⁻¹ |
| B11 |  |  |  | > 3 fold |  |  |
| B12 | 0.5 nM | 0.000343 s⁻¹ | 675000 M⁻¹ s⁻¹ |  | > 10 fold | fold greater affinity than parent LM609 grafted antibody [4]: ~55 fold; fold greater association rate than parent [4]: 2 to 4 fold |
| B13 |  |  |  | > 3 fold |  |  |
| B14 |  |  |  | > 3 fold |  |  |
| B15 |  |  |  | > 3 fold |  |  |
| B16 | 0.5 nM | 0.000137 s⁻¹ | 265000 M⁻¹ s⁻¹ |  | > 10 fold |  |

| Binder | Kd [2] | koff [2] | kon [2] | fold enhanced binding over parent LM609 grafted antibody [3] | fold slower dissociation rate than parent [4] | also measured |
| --- | --- | --- | --- | --- | --- | --- |
| B17 | 0.5 nM | 0.00014 s⁻¹ | 279000 M⁻¹ s⁻¹ |  | > 10 fold | fold enhanced affinity over parent LM609 grafted antibody [4]: > 50 fold |
| B18 |  |  |  | > 3 fold |  |  |
| B19 | 0.6 nM | 0.00028 s⁻¹ | 475000 M⁻¹ s⁻¹ |  | > 10 fold |  |
| B20 |  |  |  | > 3 fold |  | Kd [1]: 8.3 nM; koff [1]: 0.00227 s⁻¹; kon [1]: 275000 M⁻¹ s⁻¹ |
| B21 | 0.7 nM | 0.00028 s⁻¹ | 389000 M⁻¹ s⁻¹ |  | > 10 fold | fold greater association rate than parent [4]: 2 to 4 fold |
| B22 | 0.5 nM | 0.000138 s⁻¹ | 251000 M⁻¹ s⁻¹ |  | > 10 fold | fold enhanced affinity over parent LM609 grafted antibody [4]: > 50 fold |
| B23 | 0.4 nM | 0.000187 s⁻¹ | 504000 M⁻¹ s⁻¹ |  | > 10 fold |  |
| B24 |  |  |  | > 3 fold |  |  |
| B25 | 0.3 nM | 0.000147 s⁻¹ | 448000 M⁻¹ s⁻¹ |  | > 10 fold | fold greater affinity than LM609 grafted antibody Fab [4]: ~90 fold; fold greater affinity than parent LM609 grafted antibody [4]: 92 fold |
| B26 | 0.9 nM | 0.000192 s⁻¹ | 225000 M⁻¹ s⁻¹ |  | > 10 fold |  |
| B27 |  |  |  | > 3 fold |  |  |
| B28 |  |  |  | > 3 fold |  | Kd [1]: 5.8 nM; koff [1]: 0.00185 s⁻¹; kon [1]: 318000 M⁻¹ s⁻¹ |
| B29 |  |  |  | > 3 fold |  | Kd [1]: 12.2 nM; koff [1]: 0.00218 s⁻¹; kon [1]: 178000 M⁻¹ s⁻¹ |
| B30 |  |  |  | > 3 fold |  | Kd [1]: 5.7 nM; koff [1]: 0.00135 s⁻¹; kon [1]: 236000 M⁻¹ s⁻¹ |
| B31 | 0.5 nM | 0.000135 s⁻¹ | 266000 M⁻¹ s⁻¹ |  | > 10 fold |  |
| B32 |  |  |  | > 3 fold |  | Kd [1]: 3.5 nM; koff [1]: 0.00097 s⁻¹; kon [1]: 276000 M⁻¹ s⁻¹ |
